The values that follow come from US20070286859A1.

For the experiment, the target named is FcγRIIIa on human PBMCs expressing heterozygous V158/F158 FcγRIIIa (human) (UniProt P08637). Briefly: cell-based or functional assay.
Chain of FcγRIIIa on human PBMCs expressing heterozygous V158/F158 FcγRIIIa (human) (P08637 17-254): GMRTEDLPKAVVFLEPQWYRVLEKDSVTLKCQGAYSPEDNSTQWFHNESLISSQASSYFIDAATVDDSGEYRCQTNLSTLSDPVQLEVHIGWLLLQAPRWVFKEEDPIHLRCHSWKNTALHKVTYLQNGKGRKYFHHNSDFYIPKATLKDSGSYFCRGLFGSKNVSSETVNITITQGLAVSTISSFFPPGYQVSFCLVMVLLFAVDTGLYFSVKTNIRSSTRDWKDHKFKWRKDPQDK

As for S239D/I332E alemtuzumab (antibody), the ADCC EC50 worked out at 3 ng/mL, the ADCC Fold WT stood at 3.3 fold and the ADCC log(EC50) was 0.49.

Regarding V264I/I332E alemtuzumab (antibody), the ADCC EC50 was determined as 4 ng/mL and the ADCC log(EC50) worked out at 0.6.
